Measured values: patent publication US20170283834A1, “Processes for Producing A Fermentation Product Using A Fermenting Organism” (Novozymes A/S, priority 2014, published 2017)

Key:
[1] = Penicillium oxalicum glucoamylase: pH optimum; assay type: biochemical; conditions: for Relative activity (%): pH optimum
Description: (§1) Substrate: 1% soluble starch (Sigma S-9765) in deionized water
(§2) 20 microL soluble starch and 50 microL acetate buffer at pH 5.3 were mixed. 30 microL enzyme solution (50 micro g enzyme protein/ml) was added to a final volume of 100 microL followed by incubation at 37° C. for 15 min.
(§3) The glucose concentration was determined by Wako kits.
pH optimum. To assess the pH optimum of the Penicillium oxalicum glucoamylase the Reaction condition assay described above was performed at pH 2.0, 3.0, 3.5, 4.0, 4.5, 5.0, 6.0 7.0, 8.0, 9.0, 10.0 and 11.0. Instead of using the acetate buffer described in the Reaction condition assay the following buffer was used 100 mM Succinic acid, HEPES, CHES, CAPSO, 1 mM CaCl2, 150 mM KCl, 0.01% Triton X-100, pH adjusted to 2.0, 3.0, 3.5, 4.0, 4.5, 5.0, 6.0 7.0, 8.0, 9.0, 10.0 or 11.0 with HCl or NaOH.

host proteases = test: Cleavage during cultivation, SDS-PAGE of culture supernatants; parameters: species or system Aspergillus niger
Description: Aspergillus transformant of the variant and the wild type Penicillium oxalicum glucoamylase were cultivated in 6-well MT plates containing 4× diluted YP-2% maltose medium supplemented with 10 mM sodium acetate buffer, pH4.5, at 32° C. for 1 week.
The culture supernatants were loaded on SDS-PAGE.

[2] = Penicillium oxalicum glucoamylase: temperature optimum (Reaction condition assay); assay type: biochemical; conditions: for Relative activity (%): Temperature optimum
Description: as §1
(§4) Reaction buffer: 0.1 M Acetate buffer at pH 5.3 Glucose concentration determination kit: Wako glucose assay kit (LabAssay glucose, WAKO, Cat#298-65701).
To assess the temperature optimum of the Penicillium oxalicum glucoamylase the “Reaction condition”-assay described above was performed at 20, 30, 40, 50, 60, 70, 80, 85, 90 and 95° C.

[3] = Glucoamylase activity (AGU) of variant compared to parent; assay type: biochemical; conditions: 37° C., pH 4.3, maltose 100 mM
Description: The Novo Glucoamylase Unit (AGU) is defined as the amount of enzyme, which hydrolyzes 1 micromole maltose per minute under the standard conditions 37° C., pH 4.3, substrate: maltose 23.2 mM, buffer: acetate 0.1 M, reaction time 5 minutes.
An autoanalyzer system may be used. Mutarotase is added to the glucose dehydrogenase reagent so that any alpha-D-glucose present is turned into beta-D-glucose. Glucose dehydrogenase reacts specifically with beta-D-glucose in the reaction mentioned above, forming NADH which is determined using a photometer at 340 nm as a measure of the original glucose concentration.
The glucoamylase activity measures as AGU as described above was checked for the purified enzymes of the wild type Penicillium oxalicum and the variant glucoamylase.
The Glucoamylase Unit (AGU) was defined as the amount of enzyme, which hydrolyzes 1 micromole maltose per minute under the standard conditions (37° C., pH 4.3, substrate: maltose 100 mM, buffer: acetate 0.1 M, reaction time 6 minutes).

aspergillopepsin I = test: PE001 protease stability, SDS-PAGE after protease treatment; assay type: biochemical
Description: (§5) 40 μl enzyme solutions (1 mg/ml) in 50 mM sodium acetate buffer, pH 4.5, were mixed with 1/10 volume of 1 mg/ml protease solutions such as aspergillopepsin I described in Biochem J. 1975 April; 147(1):45-53, or the commercially available product from Sigma and aorsin described in Biochemical journal [0264-6021] Ichishima yr: 2003 vol:371 iss:Pt 2 pg:541 and incubated at 4 or 32° C. overnight. As a control experiment, H2O was added to the sample instead of proteases. The samples were loaded on SDS-PAGE to see if the glucoamylases are cleaved by proteases.

aorsin = target: T1, aorsin (Aspergillus oryzae, UniProt Q8NK92); test: as above; assay type: biochemical
T1 sequence (Q8NK92 216-652): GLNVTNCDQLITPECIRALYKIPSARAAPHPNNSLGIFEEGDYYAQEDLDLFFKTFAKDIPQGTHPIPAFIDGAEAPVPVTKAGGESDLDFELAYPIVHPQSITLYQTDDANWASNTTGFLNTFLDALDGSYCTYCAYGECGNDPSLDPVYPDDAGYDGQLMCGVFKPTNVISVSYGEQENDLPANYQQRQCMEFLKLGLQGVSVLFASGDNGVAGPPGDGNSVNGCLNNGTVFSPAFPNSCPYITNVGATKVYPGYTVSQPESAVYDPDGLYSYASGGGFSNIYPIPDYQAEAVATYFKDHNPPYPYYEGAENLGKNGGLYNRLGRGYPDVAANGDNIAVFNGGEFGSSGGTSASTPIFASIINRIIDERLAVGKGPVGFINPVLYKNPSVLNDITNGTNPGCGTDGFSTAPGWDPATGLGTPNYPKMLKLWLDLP
Description: as §5

[4] = Penicillium oxalicum glucoamylase: heat stability; assay type: biochemical; conditions: for Relative activity (%): Heat stability
Description: as §1, §4, §2, §3
To assess the heat stability of the Penicillium oxalicum glucoamylase the Reaction condition assay was modifed in that the enzyme solution and acetate buffer was preincubated for 15 min at 20, 30, 40, 50, 60, 70, 75, 80, 85, 90 and 95° C. Following the incubation 20 microL of starch was added to the solution and the assay was performed as described above.

[5] = culture supernatant, 32° C., 1 week
[6] = aspergillopepsin I, incubation 32° C. overnight

B1: Penicillium oxalicum glucoamylase: wild type Penicillium oxalicum glucoamylase disclosed in SEQ ID NO: 9 (protein, listed as Penicillium oxalicum)
chain: MRLTLLSGVAGVLCAGQLTAARPDPKGGNLTPFIHKEGERSLQGILDNLGGRGKKTPGTAAGLFIASPNTENPNYYYTWTRDSALTAKCLIDLFEDSRAKFPIDRKYLETGIRDYVSSQAILQSVSNPSGTLKDGSGLGEPKFEIDLNPFSGAWGRPQRDGPALRATAMITYANYLISHGQKSDVSQVMWPIIANDLAYVGQYWNNTGFDLWEEVDGSSFFTIAVQHRALVEGSQLAKKLGKSCDACDSQPPQILCFLQSFWNGKYITSNINTQASRSGIDLDSVLGSIHTFDPEAACDDATFQPCSARALANHKVYVDSFRSIYKINAGLAEGSAANVGRYPEDVYQGGNPWYLATLGASELLYDALYQWDRLGKLEVSETSLSFFKDFDATVKIGSYSRNSKTYKKLTQSIKSYADGFIQLVQQYTPSNGSLAEQYDRNTAAPLSANDLTWSFASFLTATQRRDAVVPPSWGAKSANKVPTTCSASPVVGTYKAPTATFSSKTKCVPAKDIVPITFYLIENTYYGENVFMSGNITALGNWDAKKGFPLTANLYTQDQNLWFASVEFIPAGTPFEYKYYKVEPNGDITWEKGPNRVFVAPTGCPVQPHSNDVWQF
In the case of B1, the “pH of highest activity” value ([1]; at the given conditions) is reported as 5.0, the “activity maintained from pH 2 to 7” value ([1]; pH 2 to 7) is reported as “more than 50%” and the “Relative activity (%)” value ([1]; pH 2.0) is reported as 71.4%. The “Relative activity (%)” value ([1]; pH 3.0) was 78.6%, the “Relative activity (%)” value ([1]; pH 3.5) was 77.0% and the “Relative activity (%)” value ([1]; pH 4.0) was 91.2%. The “Relative activity (%)” value ([1]; pH 4.5) was 84.2%, the “Relative activity (%)” value ([1]; pH 5.0) was 100.0% and the “Relative activity (%)” value ([1]; pH 6.0) was 55.5%. For the same molecule, the “Relative activity (%)” value ([1]; pH 7.0) was 66.7%, the “Relative activity (%)” value ([1]; pH 8.0) was 30.9% and the “Relative activity (%)” value ([1]; pH 9.0) was 17.8%. For the same molecule, the “Relative activity (%)” value ([1]; pH 10.0) was 15.9%, the “Relative activity (%)” value ([1]; pH 11.0) was 16.1% and the “cleavage by host proteases during fermentation” value (host proteases) was “cleaved by host proteases during fermentation”. For the same molecule, the “cleaved glucoamylase (ca. 60 kDa)” value (host proteases; [5]) was 10%, the “intact glucoamylase (ca. 70 kDa)” value (host proteases; [5]) was 90% and the “activity maintained at 95° C.” value ([2]; 95° C.) was “more than 80%”. For the same molecule, the “Relative activity (%)” value ([2]; 20° C.) was 63.6%, the “Relative activity (%)” value ([2]; 30° C.) was 71.7% and the “Relative activity (%)” value ([2]; 40° C.) was 86.4%. The “Relative activity (%)” value ([2]; 50° C.) was 99.4%, the “Relative activity (%)” value ([2]; 60° C.) was 94.6% and the “Relative activity (%)” value ([2]; 70° C.) was 100.0%. The “Relative activity (%)” value ([2]; 80° C.) was 92.9%, the “Relative activity (%)” value ([2]; 85° C.) was 92.5% and the “Relative activity (%)” value ([2]; 90° C.) was 82.7%. For the same molecule, the “Relative activity (%)” value ([2]; 95° C.) was 82.8%, the “Relative specific activity AGU/mg” value [3] was 100% and the “intact glucoamylase (ca. 70 kDa)” value (aspergillopepsin I; aspergillopepsin I, incubation 4° C. overnight) was 100%. The “cleaved glucoamylase (ca. 60 kDa)” value (aspergillopepsin I; [6]) was 10%, the “intact glucoamylase (ca. 70 kDa)” value (aspergillopepsin I; [6]) was 90% and the “SDS-PAGE result after protease treatment” value (aspergillopepsin I; proteases (aspergillopepsin I, aorsin)) was “degraded by proteases”. The “cleaved glucoamylase (ca. 60 kDa)” value (aorsin; incubation 4° C. overnight) was 60%, the “intact glucoamylase (ca. 70 kDa)” value (aorsin; incubation 4° C. overnight) was 40% and the “cleaved glucoamylase (ca. 60 kDa)” value (aorsin; incubation 32° C. overnight) was 90%. The “intact glucoamylase (ca. 70 kDa)” value (aorsin; incubation 32° C. overnight) was 10%, the “Relative activity (%)” value ([4]; preincubated 15 min at 20° C.) was 91.0% and the “Relative activity (%)” value ([4]; preincubated 15 min at 30° C.) was 92.9%. For the same molecule, the “Relative activity (%)” value ([4]; preincubated 15 min at 40° C.) was 88.1%, the “Relative activity (%)” value ([4]; preincubated 15 min at 50° C.) was 100.0% and the “Relative activity (%)” value ([4]; preincubated 15 min at 60° C.) was 96.9%. For the same molecule, the “Relative activity (%)” value ([4]; preincubated 15 min at 70° C.) was 86.0%, the “Relative activity (%)” value ([4]; preincubated 15 min at 80° C.) was 34.8% and the “Relative activity (%)” value ([4]; preincubated 15 min at 85° C.) was 36.0%. The “Relative activity (%)” value ([4]; preincubated 15 min at 90° C.) was 34.2%, the “Relative activity (%)” value ([4]; preincubated 15 min at 95° C.) was 34.8% and the “activity maintained after preincubation” value ([4]; up to 70° C., preincubation for 15 min) was “more than 80%”.
